Starred links: 1 amine or outer side, 2 acyl side, 3 side chain; linkers in the order of their positions; H or OH if unused. Non-standard residues stand in square brackets, D forms with d. Groups on a side chain read outwards from the residue. No end group written: not given here. *: point of attachment. C18 diacid = O=C(O)CCCCCCCCCCCCCCCCC(=O)*; γGlu = O=C(O)[C@H](CCC(=O)[*:2])N[*:1]; Palmitoyl = CCCCCCCCCCCCCCCC(=O)*; AEEA = NCCOCCOCC(=O)O; Aib = CC(C)(N)C(=O)O
T1: CRF1R receptor (anti-target) (UniProt P34998 24-415, limits assumed)
T1 sequence (looked up): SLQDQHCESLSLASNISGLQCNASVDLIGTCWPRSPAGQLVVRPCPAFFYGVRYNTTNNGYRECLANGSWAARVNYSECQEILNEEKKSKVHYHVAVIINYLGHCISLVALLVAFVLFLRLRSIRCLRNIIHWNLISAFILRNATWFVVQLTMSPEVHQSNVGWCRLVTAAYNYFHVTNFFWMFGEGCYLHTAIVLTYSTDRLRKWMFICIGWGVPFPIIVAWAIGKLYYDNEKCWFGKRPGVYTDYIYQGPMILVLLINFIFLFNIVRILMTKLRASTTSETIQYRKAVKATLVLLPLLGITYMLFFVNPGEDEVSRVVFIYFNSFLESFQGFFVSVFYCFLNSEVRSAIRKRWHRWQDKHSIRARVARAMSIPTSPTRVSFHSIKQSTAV

B1: peptide of SEQ ID NO: 96 (peptide)
peptide: IVLSLDVPIKLK([AEEA-AEEA-γGlu-C18 diacid])QILLKQERQKKEREQAETNKQILAQV-NH2
modifications: N-terminus assumed
SMILES: CC[C@H](C)[C@H](N)C(=O)N[C@H](C(=O)N[C@@H](CC(C)C)C(=O)N[C@@H](CO)C(=O)N[C@@H](CC(C)C)C(=O)N[C@@H](CC(=O)O)C(=O)N[C@H](C(=O)N1CCC[C@H]1C(=O)N[C@H](C(=O)N[C@@H](CCCCN)C(=O)N[C@@H](CC(C)C)C(=O)N[C@@H](CCCCNC(=O)COCCOCCNC(=O)COCCOCCNC(=O)CC[C@H](NC(=O)CCCCCCCCCCCCCCCCC(=O)O)C(=O)O)C(=O)N[C@@H](CCC(N)=O)C(=O)N[C@H](C(=O)N[C@@H](CC(C)C)C(=O)N[C@@H](CC(C)C)C(=O)N[C@@H](CCCCN)C(=O)N[C@@H](CCC(N)=O)C(=O)N[C@@H](CCC(=O)O)C(=O)N[C@@H](CCCNC(=N)N)C(=O)N[C@@H](CCC(N)=O)C(=O)N[C@@H](CCCCN)C(=O)N[C@@H](CCCCN)C(=O)N[C@@H](CCC(=O)O)C(=O)N[C@@H](CCCNC(=N)N)C(=O)N[C@@H](CCC(=O)O)C(=O)N[C@@H](CCC(N)=O)C(=O)N[C@@H](C)C(=O)N[C@@H](CCC(=O)O)C(=O)N[C@H](C(=O)N[C@@H](CC(N)=O)C(=O)N[C@@H](CCCCN)C(=O)N[C@@H](CCC(N)=O)C(=O)N[C@H](C(=O)N[C@@H](CC(C)C)C(=O)N[C@@H](C)C(=O)N[C@@H](CCC(N)=O)C(=O)N[C@H](C(N)=O)C(C)C)[C@@H](C)CC)[C@@H](C)O)[C@@H](C)CC)[C@@H](C)CC)C(C)C)C(C)C
B2: peptide of SEQ ID NO: 102 (peptide)
peptide: IVLSLD[dV]PIKLK([AEEA-AEEA-γGlu-C18 diacid])QILLKQERQKKQREQAETNKQILAQV-NH2
modifications: N-terminus assumed
SMILES: CC[C@H](C)[C@H](N)C(=O)N[C@H](C(=O)N[C@@H](CC(C)C)C(=O)N[C@@H](CO)C(=O)N[C@@H](CC(C)C)C(=O)N[C@@H](CC(=O)O)C(=O)N[C@@H](C(=O)N1CCC[C@H]1C(=O)N[C@H](C(=O)N[C@@H](CCCCN)C(=O)N[C@@H](CC(C)C)C(=O)N[C@@H](CCCCNC(=O)COCCOCCNC(=O)COCCOCCNC(=O)CC[C@H](NC(=O)CCCCCCCCCCCCCCCCC(=O)O)C(=O)O)C(=O)N[C@@H](CCC(N)=O)C(=O)N[C@H](C(=O)N[C@@H](CC(C)C)C(=O)N[C@@H](CC(C)C)C(=O)N[C@@H](CCCCN)C(=O)N[C@@H](CCC(N)=O)C(=O)N[C@@H](CCC(=O)O)C(=O)N[C@@H](CCCNC(=N)N)C(=O)N[C@@H](CCC(N)=O)C(=O)N[C@@H](CCCCN)C(=O)N[C@@H](CCCCN)C(=O)N[C@@H](CCC(N)=O)C(=O)N[C@@H](CCCNC(=N)N)C(=O)N[C@@H](CCC(=O)O)C(=O)N[C@@H](CCC(N)=O)C(=O)N[C@@H](C)C(=O)N[C@@H](CCC(=O)O)C(=O)N[C@H](C(=O)N[C@@H](CC(N)=O)C(=O)N[C@@H](CCCCN)C(=O)N[C@@H](CCC(N)=O)C(=O)N[C@H](C(=O)N[C@@H](CC(C)C)C(=O)N[C@@H](C)C(=O)N[C@@H](CCC(N)=O)C(=O)N[C@H](C(N)=O)C(C)C)[C@@H](C)CC)[C@@H](C)O)[C@@H](C)CC)[C@@H](C)CC)C(C)C)C(C)C
B3: peptide of SEQ ID NO: 88 (peptide)
peptide: IVLSLDVPIKLK([AEEA-AEEA-γGlu-C18 diacid])QILLKQERQKKQREKAKTN[Aib]QILAQV-NH2
modifications: N-terminus assumed
SMILES: CC[C@H](C)[C@H](N)C(=O)N[C@H](C(=O)N[C@@H](CC(C)C)C(=O)N[C@@H](CO)C(=O)N[C@@H](CC(C)C)C(=O)N[C@@H](CC(=O)O)C(=O)N[C@H](C(=O)N1CCC[C@H]1C(=O)N[C@H](C(=O)N[C@@H](CCCCN)C(=O)N[C@@H](CC(C)C)C(=O)N[C@@H](CCCCNC(=O)COCCOCCNC(=O)COCCOCCNC(=O)CC[C@H](NC(=O)CCCCCCCCCCCCCCCCC(=O)O)C(=O)O)C(=O)N[C@@H](CCC(N)=O)C(=O)N[C@H](C(=O)N[C@@H](CC(C)C)C(=O)N[C@@H](CC(C)C)C(=O)N[C@@H](CCCCN)C(=O)N[C@@H](CCC(N)=O)C(=O)N[C@@H](CCC(=O)O)C(=O)N[C@@H](CCCNC(=N)N)C(=O)N[C@@H](CCC(N)=O)C(=O)N[C@@H](CCCCN)C(=O)N[C@@H](CCCCN)C(=O)N[C@@H](CCC(N)=O)C(=O)N[C@@H](CCCNC(=N)N)C(=O)N[C@@H](CCC(=O)O)C(=O)N[C@@H](CCCCN)C(=O)N[C@@H](C)C(=O)N[C@@H](CCCCN)C(=O)N[C@H](C(=O)N[C@@H](CC(N)=O)C(=O)NC(C)(C)C(=O)N[C@@H](CCC(N)=O)C(=O)N[C@H](C(=O)N[C@@H](CC(C)C)C(=O)N[C@@H](C)C(=O)N[C@@H](CCC(N)=O)C(=O)N[C@H](C(N)=O)C(C)C)[C@@H](C)CC)[C@@H](C)O)[C@@H](C)CC)[C@@H](C)CC)C(C)C)C(C)C
B4: peptide of SEQ ID NO: 89 (peptide)
peptide: IVLSLDVPIKLK([AEEA-AEEA-γGlu-C18 diacid])QILLKQERQKKQREQAKTN[Aib]QILAQV-NH2
modifications: N-terminus assumed
SMILES: CC[C@H](C)[C@H](N)C(=O)N[C@H](C(=O)N[C@@H](CC(C)C)C(=O)N[C@@H](CO)C(=O)N[C@@H](CC(C)C)C(=O)N[C@@H](CC(=O)O)C(=O)N[C@H](C(=O)N1CCC[C@H]1C(=O)N[C@H](C(=O)N[C@@H](CCCCN)C(=O)N[C@@H](CC(C)C)C(=O)N[C@@H](CCCCNC(=O)COCCOCCNC(=O)COCCOCCNC(=O)CC[C@H](NC(=O)CCCCCCCCCCCCCCCCC(=O)O)C(=O)O)C(=O)N[C@@H](CCC(N)=O)C(=O)N[C@H](C(=O)N[C@@H](CC(C)C)C(=O)N[C@@H](CC(C)C)C(=O)N[C@@H](CCCCN)C(=O)N[C@@H](CCC(N)=O)C(=O)N[C@@H](CCC(=O)O)C(=O)N[C@@H](CCCNC(=N)N)C(=O)N[C@@H](CCC(N)=O)C(=O)N[C@@H](CCCCN)C(=O)N[C@@H](CCCCN)C(=O)N[C@@H](CCC(N)=O)C(=O)N[C@@H](CCCNC(=N)N)C(=O)N[C@@H](CCC(=O)O)C(=O)N[C@@H](CCC(N)=O)C(=O)N[C@@H](C)C(=O)N[C@@H](CCCCN)C(=O)N[C@H](C(=O)N[C@@H](CC(N)=O)C(=O)NC(C)(C)C(=O)N[C@@H](CCC(N)=O)C(=O)N[C@H](C(=O)N[C@@H](CC(C)C)C(=O)N[C@@H](C)C(=O)N[C@@H](CCC(N)=O)C(=O)N[C@H](C(N)=O)C(C)C)[C@@H](C)CC)[C@@H](C)O)[C@@H](C)CC)[C@@H](C)CC)C(C)C)C(C)C
B5: peptide of SEQ ID NO: 30 (peptide)
peptide: IVLSLD[dV]PTKLK([γGlu-Palmitoyl])KKLLKQERKRKEREQAEKAARILERV-NH2
modifications: N-terminus assumed
SMILES: CCCCCCCCCCCCCCCC(=O)N[C@@H](CCC(=O)NCCCC[C@H](NC(=O)[C@H](CC(C)C)NC(=O)[C@H](CCCCN)NC(=O)[C@@H](NC(=O)[C@@H]1CCCN1C(=O)[C@H](NC(=O)[C@H](CC(=O)O)NC(=O)[C@H](CC(C)C)NC(=O)[C@H](CO)NC(=O)[C@H](CC(C)C)NC(=O)[C@@H](NC(=O)[C@@H](N)[C@@H](C)CC)C(C)C)C(C)C)[C@@H](C)O)C(=O)N[C@@H](CCCCN)C(=O)N[C@@H](CCCCN)C(=O)N[C@@H](CC(C)C)C(=O)N[C@@H](CC(C)C)C(=O)N[C@@H](CCCCN)C(=O)N[C@@H](CCC(N)=O)C(=O)N[C@@H](CCC(=O)O)C(=O)N[C@@H](CCCNC(=N)N)C(=O)N[C@@H](CCCCN)C(=O)N[C@@H](CCCNC(=N)N)C(=O)N[C@@H](CCCCN)C(=O)N[C@@H](CCC(=O)O)C(=O)N[C@@H](CCCNC(=N)N)C(=O)N[C@@H](CCC(=O)O)C(=O)N[C@@H](CCC(N)=O)C(=O)N[C@@H](C)C(=O)N[C@@H](CCC(=O)O)C(=O)N[C@@H](CCCCN)C(=O)N[C@@H](C)C(=O)N[C@@H](C)C(=O)N[C@@H](CCCNC(=N)N)C(=O)N[C@H](C(=O)N[C@@H](CC(C)C)C(=O)N[C@@H](CCC(=O)O)C(=O)N[C@@H](CCCNC(=N)N)C(=O)N[C@H](C(N)=O)C(C)C)[C@@H](C)CC)C(=O)O
B6: peptide of SEQ ID NO: 103 (peptide)
peptide: IVLSLDVPIKLK([AEEA-AEEA-γGlu-C18 diacid])QILLEQERQK[Aib]QREQAETNKQILAQV-NH2
modifications: N-terminus assumed
SMILES: CC[C@H](C)[C@H](N)C(=O)N[C@H](C(=O)N[C@@H](CC(C)C)C(=O)N[C@@H](CO)C(=O)N[C@@H](CC(C)C)C(=O)N[C@@H](CC(=O)O)C(=O)N[C@H](C(=O)N1CCC[C@H]1C(=O)N[C@H](C(=O)N[C@@H](CCCCN)C(=O)N[C@@H](CC(C)C)C(=O)N[C@@H](CCCCNC(=O)COCCOCCNC(=O)COCCOCCNC(=O)CC[C@H](NC(=O)CCCCCCCCCCCCCCCCC(=O)O)C(=O)O)C(=O)N[C@@H](CCC(N)=O)C(=O)N[C@H](C(=O)N[C@@H](CC(C)C)C(=O)N[C@@H](CC(C)C)C(=O)N[C@@H](CCC(=O)O)C(=O)N[C@@H](CCC(N)=O)C(=O)N[C@@H](CCC(=O)O)C(=O)N[C@@H](CCCNC(=N)N)C(=O)N[C@@H](CCC(N)=O)C(=O)N[C@@H](CCCCN)C(=O)NC(C)(C)C(=O)N[C@@H](CCC(N)=O)C(=O)N[C@@H](CCCNC(=N)N)C(=O)N[C@@H](CCC(=O)O)C(=O)N[C@@H](CCC(N)=O)C(=O)N[C@@H](C)C(=O)N[C@@H](CCC(=O)O)C(=O)N[C@H](C(=O)N[C@@H](CC(N)=O)C(=O)N[C@@H](CCCCN)C(=O)N[C@@H](CCC(N)=O)C(=O)N[C@H](C(=O)N[C@@H](CC(C)C)C(=O)N[C@@H](C)C(=O)N[C@@H](CCC(N)=O)C(=O)N[C@H](C(N)=O)C(C)C)[C@@H](C)CC)[C@@H](C)O)[C@@H](C)CC)[C@@H](C)CC)C(C)C)C(C)C

target: T1, CRF1R receptor (anti-target); assay: cell-based or functional assay

| EC50 [nM] 0% HSA (cAMP, HTRF) [nM] | Emax (%) (100% = Sauvagine at 100 nM) | Binder |
| --- | --- | --- |
| > 100 | 2.3 | B1 |
| > 100 | 9 | B2 |
| > 100 | 2.3 | B3 |
| > 100 | 3.7 | B4 |
| > 100 | 14.5 | B5 |
| > 100 | 14 | B6 |

— US12679878B2, “CRF2 receptor agonists and their use in therapy” (SANOFI, priority 2020, dated 2026)
